The values that follow come from patent US20070207967A1 (CTT CANCER TARGETING TECHNOLOGIES, published 2007).

Sequences and labels used below:
B1: MMP-9 collagen binding domain (CBD), amino acids Gly204-Gly373 (other, UniProt P14780 223-392, looked up)
chain: GNADGAACHFPFIFEGRSYSACTTDGRSDGLPWCSTTANYDTDDRFGFCPSERLYTQDGNADGKPCQFPFIFQGQSYSACTTDGRSDGYRWCATTANYDRDKLFGFCPTRADSTVMGGNSAGELCVFPFTFLGKEYSTCTSEGRGDGRLWCATTSNFDSDKKWGFCPDQG
modifications: biotinylated with sulfo-NHS-LC-biotin in some experiments
notes: range 223-392; Vector-derived residues (start Met from the NdeI site) not described further; also called recombinant CBD; biotinylated CBD
B2: fibronectin-derived peptide TTPNSLLVSWQPPRARIT (peptide)
peptide: TTPNSLLVSWQPPRARIT
notes: Synthesized on a cellulose membrane (pepspot); also called PPC-like fibronectin peptide
B3: CRV phage (CRVYGPYLLC displayed on phage) (peptide)
peptide: CRVYGPYLLC
modifications: cysteine pairing not given here; also: displayed on phage as coat protein fusion
notes: also called phage carrying CRV
B4: integrin β5 I-EGF2+3 fragment (Glu476-Asn563) with N-terminal His6-tag (receptor, UniProt P18084 499-586, looked up)
chain: ECQDGENQSVYQNLCREAEGKPLCSGRGDCSCNQCSCFESEFGKIYGPFCECDNFSCARNKGVLCSGHGECHCGECKCHAGYIGDNCN
modifications: biotinylated where used as the labelled ligand
notes: range 476-563; also called I-EGF2+3 fragment of β5 integrin; biotinylated β5 I-EGF2+3; not shown: N-terminal His6-tag from the pHAT2 vector
B5: PPC peptide-bearing phage (CGYGRFSPPC displayed on phage) (peptide)
peptide: CGYGRFSPPC
modifications: cysteine pairing not given here; also: displayed on phage
notes: also called PPC phage; phage carrying PPC
B6: pro-MMP-9 (purified human pro-matrix metalloproteinase-9) (enzyme, UniProt P14780 20-707, looked up)
chain: APRQRQSTLVLFPGDLRTNLTDRQLAEEYLYRYGYTRVAEMRGESKSLGPALLLLQKQLSLPETGELDSATLKAMRTPRCGVPDLGRFQTFEGDLKWHHHNITYWIQNYSEDLPRAVIDDAFARAFALWSAVTPLTFTRVYSRDADIVIQFGVAEHGDGYPFDGKDGLLAHAFPPGPGIQGDAHFDDDELWSLGKGVVVPTRFGNADGAACHFPFIFEGRSYSACTTDGRSDGLPWCSTTANYDTDDRFGFCPSERLYTQDGNADGKPCQFPFIFQGQSYSACTTDGRSDGYRWCATTANYDRDKLFGFCPTRADSTVMGGNSAGELCVFPFTFLGKEYSTCTSEGRGDGRLWCATTSNFDSDKKWGFCPDQGYSLFLVAAHEFGHALGLDHSSVPEALMYPMYRFTEGPPLHKDDVNGIRHLYGPRPEPEPRPPTTTTPQPTAPPTVCPTGPPTVHPSERPTAGPTGPPSAGPTGPPTAGPSTATTVPLSPVDDACNVNIFDAIAEIGNQLYLFKDGKYWRFSEGRGSRPQGPFLIADKWPALPRKLDSVFEERLSKKLFFFSGRQVWVYTGASVLGPRRLDKLGLGADVAQVTGALRSGRGKMLLFSGRRLWRFDVKAQMVDPRSASEVDRMFPGVPLDTHDVFQYREKAYFCQDRFYWRVSSRSELNQVDQVGYVTYDILQCPED
notes: Purified proenzyme in plate assays; endogenous pro-MMP-9 of HT1080 and THP-1 cells in the co-immunoprecipitations

The target of data set [1] is T1, urea-denaturated human plasma vitronectin (human, UniProt P04004 20-478).
T1 construct: also called VN
T1 sequence (P04004 20-478 limits assumed): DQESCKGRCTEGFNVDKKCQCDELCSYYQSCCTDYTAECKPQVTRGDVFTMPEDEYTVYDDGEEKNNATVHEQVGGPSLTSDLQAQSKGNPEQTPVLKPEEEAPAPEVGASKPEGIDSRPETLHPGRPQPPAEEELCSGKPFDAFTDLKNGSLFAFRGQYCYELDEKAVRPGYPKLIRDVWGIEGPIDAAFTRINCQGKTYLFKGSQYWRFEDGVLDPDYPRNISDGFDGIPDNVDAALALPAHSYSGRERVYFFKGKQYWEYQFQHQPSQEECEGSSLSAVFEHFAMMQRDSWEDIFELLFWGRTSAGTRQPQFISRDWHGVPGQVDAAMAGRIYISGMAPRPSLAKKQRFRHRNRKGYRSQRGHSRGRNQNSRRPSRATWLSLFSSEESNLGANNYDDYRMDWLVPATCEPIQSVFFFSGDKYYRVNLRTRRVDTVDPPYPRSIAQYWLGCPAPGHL
Kind of data set: solid phase binding assay (discussion).

In data set [2] the target is B1. Briefly: pepspot membrane assay, chemiluminescence.
Data set [3] concerns the target T2, pro-MMP-9-ΔHC (Ala1-Gly424), pro-MMP-9 lacking the hinge region and the C domain (UniProt P14780 20-444).
T2 construct: range 20-444
Kind of data set: phage binding assay (not shown).

Data set [4] addresses T3, pro-MMP-2 (UniProt P08253 30-660, limits assumed).
T3 sequence (looked up): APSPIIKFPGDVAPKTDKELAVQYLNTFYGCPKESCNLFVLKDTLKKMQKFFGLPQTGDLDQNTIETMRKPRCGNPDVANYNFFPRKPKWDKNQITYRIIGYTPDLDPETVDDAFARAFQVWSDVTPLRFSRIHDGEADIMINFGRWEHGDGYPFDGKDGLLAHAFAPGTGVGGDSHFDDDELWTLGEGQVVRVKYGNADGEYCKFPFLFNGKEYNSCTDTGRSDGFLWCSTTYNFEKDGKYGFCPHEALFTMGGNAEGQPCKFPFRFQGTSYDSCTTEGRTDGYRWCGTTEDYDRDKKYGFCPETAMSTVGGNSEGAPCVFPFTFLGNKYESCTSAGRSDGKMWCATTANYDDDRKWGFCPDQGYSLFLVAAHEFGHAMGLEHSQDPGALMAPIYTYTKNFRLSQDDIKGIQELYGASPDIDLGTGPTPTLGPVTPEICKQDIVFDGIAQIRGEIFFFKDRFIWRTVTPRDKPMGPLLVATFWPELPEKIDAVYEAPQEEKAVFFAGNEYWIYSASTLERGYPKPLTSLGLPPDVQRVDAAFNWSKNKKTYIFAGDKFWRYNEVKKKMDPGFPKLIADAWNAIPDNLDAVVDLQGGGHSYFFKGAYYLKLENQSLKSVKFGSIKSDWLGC
Kind of data set: phage binding assay.

The target in data set [5] is pro-MMP-3 (UniProt P08254 18-477, limits assumed). Briefly: phage binding assay.
pro-MMP-3, sequence (P08254 18-477 limits assumed): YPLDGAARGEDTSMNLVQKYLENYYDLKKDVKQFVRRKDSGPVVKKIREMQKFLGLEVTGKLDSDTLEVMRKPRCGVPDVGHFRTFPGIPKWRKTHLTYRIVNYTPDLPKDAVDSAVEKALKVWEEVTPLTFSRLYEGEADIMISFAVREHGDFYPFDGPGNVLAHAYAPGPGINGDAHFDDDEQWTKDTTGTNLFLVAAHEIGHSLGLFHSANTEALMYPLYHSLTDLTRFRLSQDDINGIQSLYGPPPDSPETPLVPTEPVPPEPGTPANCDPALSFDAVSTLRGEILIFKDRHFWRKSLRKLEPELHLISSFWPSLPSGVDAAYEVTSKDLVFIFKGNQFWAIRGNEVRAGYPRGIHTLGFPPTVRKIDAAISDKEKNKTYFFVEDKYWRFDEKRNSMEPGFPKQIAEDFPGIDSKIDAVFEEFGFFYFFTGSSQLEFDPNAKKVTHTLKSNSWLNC
For data set [6], the target named is B1. Kind of data set: phage binding assay.
Data set [7] has as its target B6. Kind of data set: phage display selection; table of pro-MMP-9 binding peptide sequences, group I CBD-binding.
Data set [8] has as its target T1, urea-denaturated human plasma …. Kind of data set: solid phase assay, streptavidin-peroxidase.
Data set [9] concerns the molecule itself. Kind of data set: solid phase assay, streptavidin-peroxidase.
Data set [10] has as its target B1. Briefly: solid phase assay, streptavidin-peroxidase.
Data set [11] deals with B6. Kind of data set: phage display selection; table of pro-MMP-9 binding peptide sequences, group I CBD-binding; (6) is the number of isolated phage.
Data set [12] has as its target platelet integrin αIIbβ3 (UniProt P08514 32-1039; P05106 27-788). Briefly: pro-MMP-9 on immobilized integrin, read out by biotinylated gelatin.
The target of data set [13] is T4, αVβ3 integrin of HT1080 cells (human, UniProt P06756 31-1048; P05106 27-788).
T4 construct: whole, on cells
T4 sequence (P06756 31-1048, chain 1 of 2): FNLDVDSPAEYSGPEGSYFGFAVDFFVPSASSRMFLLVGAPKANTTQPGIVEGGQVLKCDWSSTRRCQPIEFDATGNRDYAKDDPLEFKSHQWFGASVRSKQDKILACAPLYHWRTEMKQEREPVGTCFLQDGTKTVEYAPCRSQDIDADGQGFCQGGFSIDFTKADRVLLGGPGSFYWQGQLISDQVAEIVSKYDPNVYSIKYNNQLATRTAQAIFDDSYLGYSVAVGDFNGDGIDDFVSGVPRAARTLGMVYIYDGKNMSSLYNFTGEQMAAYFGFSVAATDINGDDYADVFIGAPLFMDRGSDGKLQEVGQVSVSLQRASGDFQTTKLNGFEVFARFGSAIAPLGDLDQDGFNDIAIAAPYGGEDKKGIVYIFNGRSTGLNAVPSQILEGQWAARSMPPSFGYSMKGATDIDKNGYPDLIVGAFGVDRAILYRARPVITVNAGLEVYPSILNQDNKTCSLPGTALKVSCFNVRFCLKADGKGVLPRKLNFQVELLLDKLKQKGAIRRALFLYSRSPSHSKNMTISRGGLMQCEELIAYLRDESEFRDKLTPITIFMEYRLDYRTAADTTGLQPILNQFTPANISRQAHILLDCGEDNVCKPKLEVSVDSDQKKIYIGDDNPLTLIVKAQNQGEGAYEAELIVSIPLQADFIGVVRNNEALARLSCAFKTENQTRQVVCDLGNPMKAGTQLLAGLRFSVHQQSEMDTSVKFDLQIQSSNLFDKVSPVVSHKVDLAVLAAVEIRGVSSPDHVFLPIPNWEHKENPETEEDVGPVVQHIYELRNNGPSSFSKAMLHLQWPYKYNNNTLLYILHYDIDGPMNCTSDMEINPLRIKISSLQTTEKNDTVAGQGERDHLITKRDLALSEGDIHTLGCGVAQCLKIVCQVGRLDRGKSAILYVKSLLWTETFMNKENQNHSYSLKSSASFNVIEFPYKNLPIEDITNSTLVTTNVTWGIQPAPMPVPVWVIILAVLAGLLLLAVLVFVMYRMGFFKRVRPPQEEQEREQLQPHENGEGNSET
T4 sequence (P05106 27-788, chain 2 of 2): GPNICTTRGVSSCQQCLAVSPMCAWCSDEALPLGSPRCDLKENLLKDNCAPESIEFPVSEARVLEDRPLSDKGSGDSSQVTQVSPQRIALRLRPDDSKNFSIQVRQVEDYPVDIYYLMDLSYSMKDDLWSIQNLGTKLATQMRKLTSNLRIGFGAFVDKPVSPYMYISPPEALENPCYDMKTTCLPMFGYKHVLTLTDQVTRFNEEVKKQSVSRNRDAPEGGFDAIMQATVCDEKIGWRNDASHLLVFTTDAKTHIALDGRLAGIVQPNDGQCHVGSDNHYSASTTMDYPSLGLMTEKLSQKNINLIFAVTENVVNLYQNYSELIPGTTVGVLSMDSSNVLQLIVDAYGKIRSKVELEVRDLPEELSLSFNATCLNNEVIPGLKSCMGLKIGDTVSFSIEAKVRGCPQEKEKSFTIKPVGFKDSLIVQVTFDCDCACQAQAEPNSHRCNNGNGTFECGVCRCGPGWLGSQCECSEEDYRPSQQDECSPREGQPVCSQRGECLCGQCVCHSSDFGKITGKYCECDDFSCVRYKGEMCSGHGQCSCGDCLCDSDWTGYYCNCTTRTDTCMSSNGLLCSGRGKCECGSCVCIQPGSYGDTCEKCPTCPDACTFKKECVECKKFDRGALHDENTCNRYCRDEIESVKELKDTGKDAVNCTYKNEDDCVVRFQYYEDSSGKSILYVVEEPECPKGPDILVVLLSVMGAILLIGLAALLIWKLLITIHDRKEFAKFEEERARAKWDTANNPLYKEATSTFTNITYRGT
Kind of data set: immunoprecipitation with anti-integrin antisera, western blot for MMP-9. On the technique in general: A western blot detects proteins with antibodies after separation by electrophoresis.

Ends that are not written are not given here.

platelet integrin αIIbβ3, sequence (P08514 32-1039, chain 1 of 2): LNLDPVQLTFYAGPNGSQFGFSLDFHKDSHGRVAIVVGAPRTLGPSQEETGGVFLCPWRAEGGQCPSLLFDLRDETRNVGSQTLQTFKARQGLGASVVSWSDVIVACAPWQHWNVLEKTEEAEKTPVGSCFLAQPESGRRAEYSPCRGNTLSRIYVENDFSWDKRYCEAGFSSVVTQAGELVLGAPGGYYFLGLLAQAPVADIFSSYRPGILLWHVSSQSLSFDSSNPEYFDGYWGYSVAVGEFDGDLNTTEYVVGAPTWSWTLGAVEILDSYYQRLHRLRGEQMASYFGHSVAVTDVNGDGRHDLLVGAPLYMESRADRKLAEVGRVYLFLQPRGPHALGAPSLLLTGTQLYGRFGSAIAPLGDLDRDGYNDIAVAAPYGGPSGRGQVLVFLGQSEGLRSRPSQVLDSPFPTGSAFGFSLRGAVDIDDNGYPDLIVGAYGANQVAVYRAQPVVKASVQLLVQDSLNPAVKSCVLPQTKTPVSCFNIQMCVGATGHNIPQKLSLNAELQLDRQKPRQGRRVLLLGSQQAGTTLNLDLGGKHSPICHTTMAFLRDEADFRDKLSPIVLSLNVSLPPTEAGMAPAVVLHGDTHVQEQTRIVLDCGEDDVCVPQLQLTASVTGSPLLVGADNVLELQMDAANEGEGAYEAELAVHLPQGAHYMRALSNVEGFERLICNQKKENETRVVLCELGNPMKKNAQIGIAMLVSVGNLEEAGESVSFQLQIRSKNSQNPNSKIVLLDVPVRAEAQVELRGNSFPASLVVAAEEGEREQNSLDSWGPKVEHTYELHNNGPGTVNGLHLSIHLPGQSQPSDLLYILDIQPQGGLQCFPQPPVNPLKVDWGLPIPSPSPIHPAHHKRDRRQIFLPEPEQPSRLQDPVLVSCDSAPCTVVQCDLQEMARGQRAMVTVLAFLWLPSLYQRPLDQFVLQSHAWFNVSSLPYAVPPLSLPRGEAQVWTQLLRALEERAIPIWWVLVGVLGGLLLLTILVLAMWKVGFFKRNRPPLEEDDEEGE
platelet integrin αIIbβ3, sequence (P05106 27-788, chain 2 of 2): as the sequence (P05106 27-788, chain 2 of 2) above

On to B1, for which, in data set [1], the binding result is “binds”.
With B2, in [2], the binding result is “binds”.
In the case of B3, the binding result in data set [3] is listed as “no binding”; in data set [4], “no binding (tested: 20 ng/well; 10^8 transducing units/well)”; in [5], “no binding (tested: 20 ng/well; 10^8 transducing units/well)”; in data set [6], “no binding (tested: 20 ng/well; 10^8 transducing units/well)”.
Regarding CGWGRYSPPC (cysteine pairing not given here; also: displayed on phage, selected by biopanning) [phage peptide CGWGRYSPPC], the binding result in [7] was “binds”.
In the case of B4, the binding result in data set [8], in data set [9] and in data set [10] was “no binding (tested: biotinylated fragment 2.5 µg/ml)” each time.
Take CGFGRWQPPC (cysteine pairing not given here; also: displayed on phage, selected by biopanning) [phage peptide CGFGRWQPPC]: the binding result in [7] is given as “binds”.
Regarding B5, the binding result in [11] was “binds”.
Regarding B6, the binding result in [12] and in data set [13] was “no binding” each time.
